{"source": "patent US7238857", "about": "“Ethylene-responsive transcription coactivators in plants” (Japan and Science and Technology Agency)", "binders": {"B1": {"name": "mERE (mutant GCC box) (dsDNA)", "DNA 1": "GATCTCATAAGATCCTCCACTAAAATAAGACCGATCAAATAAGATCCTCCATG", "DNA 2": "GATCCATGGAGGATCTTATTTGATCGGTCTTATTTTAGTGGAGGATCTTATGA"}, "B2": {"name": "ERE (2x GCC box) (dsDNA)", "DNA 1": "B1 DNA 1 with T13G, T16G, T45G, T48G", "DNA 2": "B1 DNA 2 with A10C, A13C, A42C, A45C"}}, "key": {"ERF2 [1]": {"biological_target": "T1, ERF2 (Nicotiana tabacum, UniProt Q40479 Q40479:1-233)", "T1 sequence (Q40479 whole entry, the tested form may be a part, one chain of several)": "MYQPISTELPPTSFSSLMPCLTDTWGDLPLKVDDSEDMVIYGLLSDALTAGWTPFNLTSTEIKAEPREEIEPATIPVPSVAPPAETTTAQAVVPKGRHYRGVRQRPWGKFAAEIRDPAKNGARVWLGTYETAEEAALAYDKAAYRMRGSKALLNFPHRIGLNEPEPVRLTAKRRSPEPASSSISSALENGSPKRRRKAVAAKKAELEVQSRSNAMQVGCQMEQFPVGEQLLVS", "assay": "competition; 10 ng unlabeled mERE did not inhibit ERF2-ERE complex", "conditions": "tags: His tag (pET15b, Novagen); GATC 5' overhangs", "description": "The binding activity of ERF2 to ERE was investigated using gel-shift assays. The DNA fragment containing a 53 bp wild-type ethylene-responsive element (ERE) was used as a DNA probe after labeled with a radioactive tracer using (γ^-32P)ATP and T4-polynucleotide kinase (Takara Bio INC., Kyoto, Japan). Multi-copied and linked ERE (SEQ ID NO: 3 and 4) or mERE (SEQ ID NO: 5 and 6) fragments (FIG. 1) were used as wild-type and mutant-type competitors, respectively. mERE (mutant-type) was similar to ERE (wild-type), except that the DNA nucleotide sequence in the GCC box contains base substitutions. The mixture of 1 ng of radio-labeled DNA probe (1,000 to 10,000 cpm) and 10 ng of recombinant ERF without or with 10 ng of a competitor DNA in 10 µl of the binding buffer shown in Table 1 was incubated for 45 minutes at 25° C.\nThe samples after binding reaction were subjected to 4% polyacrylamide gel electrophoresis (acrylamide:bisacrylamide=39:1, 1 mm in thickness, 13 cm long) containing 0.25×TB buffer (22.5 mM Tris-borate, pH 8.0) at 25° C. for 3 hrs at 100 V. The gel was dried and exposed to Fuji Imaging Plate® (Fuji Photo Film Co. Ltd., Kanagawa, JAPAN; a radiosensitive layer of phosphor crystals on a polyester backing plate). The electrophoresis mobility pattern was visualized using Bio-Image Analyzer (Fuji Photo Film Co. Ltd., Kanagawa, JAPAN). […]"}, "ERF1": {"biological_target": "ERF1 (Nicotiana tabacum, UniProt Q40476 Q40476:1-236)", "sequence (Q40476 whole entry, one chain of several)": "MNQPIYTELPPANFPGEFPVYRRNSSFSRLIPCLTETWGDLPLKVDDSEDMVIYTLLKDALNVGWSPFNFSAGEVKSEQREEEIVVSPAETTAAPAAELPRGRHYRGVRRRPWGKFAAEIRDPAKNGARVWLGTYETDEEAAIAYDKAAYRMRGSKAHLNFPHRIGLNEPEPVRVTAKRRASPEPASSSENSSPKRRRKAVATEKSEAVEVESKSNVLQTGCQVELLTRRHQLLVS", "assay": "in vitro transcription activation of pERE in HeLa nuclear extract", "conditions": "tags: His tag (pET15b, Novagen); label: 32P 5' end; GATC 5' overhangs", "procedure": "(§1) Moreover, the in vitro transcription reaction was assayed in the following way. The HeLa nuclear extracts used for the in vitro transcription were prepared as reported previously (Meth. Enzymol. 101:582–598(1983)).\n(§2) The transcription reaction mixture was incubated for 60 min at 30° C. and 75 µl of the reaction stopping solution (Table 2) was added to stop the reaction. Then, 100 µl of PCIAA (50% phenol, 48% chloroform, 2% isoamilalcohol) was added to the reaction mixture to recover the aqueous phase. After that, 100 µl of CIAA (96% chloroform, 4% isoamilalcohol) was added to the aqueous phase and the aqueous phase was recovered. Then, 10 µl of 3 M sodium acetate and 300 µl of ethyl alcohol were added to the aqueous phase to precipitate nucleic acid. The nucleic acid was dried and was dissolved in 10 µl of urea solution (5M urea, 1 mM EDTA, 0.1% bromophenol blue). The nucleic acid sample was subjected to electrophoresis using 6% polyacrylamide gel (acrylamide:bisacrylamide=19:1, 1 mm of thickness, 12.5 cm long) containing 89 mM Tris-borate (pH 8.3), 2 mM EDTA and 8 M urea at 300 V. When bromophenol blue in the sample had migrated to the lowest edge of the gel, the gel was removed and was soaked in 1 L of water containing 5% methanol and 5% acetic acid and then in 1 L of water containing 5% methanol, each for 20 min. Then, the gel was attached to a filter paper, dried and exposed to Fuji Imaging Plate overnight. RNA was visualized using Bio Image Analyzer.\n(§3) As in the case of reference example 2, the inventors examined the activity of transcriptional activation of other ERFs. […] The activity of transcriptional activation of each ERF was as follows; amplification by ERF3, 3 fold; that by ERF4, 3.5 fold; that by ERF1, 4 fold; that by ERF2, 5 fold."}, "ERF4": {"biological_target": "ERF4 (Nicotiana tabacum, UniProt Q40478 Q40478:1-291)", "sequence (Q40478 whole entry, one chain of several)": "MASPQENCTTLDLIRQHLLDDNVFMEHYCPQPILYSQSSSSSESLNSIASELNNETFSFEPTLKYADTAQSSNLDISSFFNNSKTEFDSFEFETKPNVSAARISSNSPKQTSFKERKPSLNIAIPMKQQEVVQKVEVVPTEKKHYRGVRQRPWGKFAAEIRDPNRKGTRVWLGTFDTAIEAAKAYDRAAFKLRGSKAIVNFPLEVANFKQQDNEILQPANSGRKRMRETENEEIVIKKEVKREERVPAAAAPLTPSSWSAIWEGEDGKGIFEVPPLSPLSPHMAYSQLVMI", "assay": "in vitro transcription activation of pERE in HeLa nuclear extract", "conditions": "tags: His tag (pET15b, Novagen); label: 32P 5' end; GATC 5' overhangs", "procedure": "as §1, §2, §3"}, "ERF3": {"biological_target": "ERF3 (Nicotiana tabacum, UniProt Q40477 Q40477:1-225)", "sequence (Q40477 whole entry, one chain of several)": "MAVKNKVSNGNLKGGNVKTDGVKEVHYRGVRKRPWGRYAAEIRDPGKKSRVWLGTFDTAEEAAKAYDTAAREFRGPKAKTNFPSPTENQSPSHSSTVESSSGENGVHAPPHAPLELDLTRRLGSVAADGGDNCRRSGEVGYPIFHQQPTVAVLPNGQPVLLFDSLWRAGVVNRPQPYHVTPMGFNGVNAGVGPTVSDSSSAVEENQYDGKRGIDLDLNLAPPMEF", "assay": "in vitro transcription activation of pERE in HeLa nuclear extract", "conditions": "tags: His tag (pET15b, Novagen); label: 32P 5' end; GATC 5' overhangs", "procedure": "as §1, §2, §3"}, "ERF2 [2]": {"biological_target": "T1, ERF2", "assay": "in vitro transcription activation of pERE in HeLa nuclear extract with tTBP", "conditions": "tags: His tag (pET15b, Novagen); label: 32P 5' end; GATC 5' overhangs", "procedure": "as §1\nas §2, with “Then, the gel was attached to a filter paper, dried and exposed to Fuji Imaging Plate overnight. RNA was visualized using Bio Image Analyzer.” left out"}}, "note": "Where a chain is given by its changes, count along the chain named.", "data": [{"binder": "B1", "values": [{"measurement": "binding result", "setting": "ERF2 [1]", "value": "no binding"}]}, {"binder": "B2", "values": [{"measurement": "activity", "setting": "ERF1", "value": 4, "unit": "fold"}, {"measurement": "activity", "setting": "ERF4", "value": 3.5, "unit": "fold"}, {"measurement": "activity", "setting": "ERF3", "value": 3, "unit": "fold"}, {"measurement": "activity", "setting": "ERF2 [2]", "value": 5, "unit": "fold"}]}]}
